Experimental data: patent publication US7119185

B1: Hunk (hormonally up-regulated, neu-tumor-associated kinase), murine, 714-amino-acid ~80-kDa polypeptide (protein)
chain: MPAAAGDGLLGEPAAPGGDGGAEDTTRPAAACEGSFLPAWVSGVSRERLRDFQHHKRVGNYLIGSRKLGEGSFAKVREGLHVLTGEKVAIKVIDKKRAKKDTYVTKNLRREGQIQQMIRHPNITQLLDILETENSYYLVMELCPGGNLMHKIYEKKRLDEAEARRYIRQLISAVEHLHRAGVVHRDLKIENLLLDEDNNIKLIDFGLSNCAGILGYSDPFSTQCGSPAYAAPELLARKKYGPKIDVWSIGVNMYAMLTGTLPFTVEPFSLRALYQKMVDKAMNPLPTQLSTGAVNFLRSLLEPDPVKRPNIQQALANRWLNENYTGKVPCNVTYPNRISLEDLSPSVVLHMTEKLGYKNSDVINTVLSNRACHILAIYFLLNKKLERYLSGKSDIQDSICYKTQLYQIEKCRATKEPYEASLDTWTRDFEFHAVQDKKPKEQEKRGDFLHRPFSKKLDKNLPSHKQPSPSLITQLQSTKALLKDRKASKSGFPDKDSFVCRNLFRKTSDSNCVASSSMEFIPVPPPRTPRIVKKLEPHQPGPGSASILPKEEPLLLDMVRSFESVDREDHIELLSPSHHYRILSSPVSLARRNSSERTLSQGLLSGSTSPLQTPLHSTLVSFAHEEKNSPPKEEGVCSPPPVPSNGLLQPLGSPNCVKSRGRFPMMGIGQMLRKRHQSLQPSSERSLDASMSPLQPIAPSSLSFDMADGVKGQC
in vitro kinase assay of Hunk immunoprecipitates with [gamma-32P]ATP (histone H1): Hunk immunoprecipitates were able to phosphorylate both histone H1 and MBP in vitro
in vitro kinase assay of anti-Hunk (C-terminal antisera) immunoprecipitates from lactating mammary glands (histone H1): Hunk-associated kinase activity was substantially greater in immunoprecipitates prepared from transgenic when compared with wild type mammary glands
in vitro kinase assay of Hunk immunoprecipitates with [gamma-32P]ATP (myelin basic protein): Hunk immunoprecipitates were able to phosphorylate both histone H1 and MBP in vitro
